This passage reports Kd results from patent US20200040083A1.

This test concerns the target IL-2Rβ (R&D Systems, Minneapolis, Minn.) (UniProt P14784). The test is described as follows: Octet (BLI), AHC capture. The settings on record: Fc fusion.

Several values for one entry are separate records, joined by “and”; a condition that tells them apart may be missing. Identical values can stand only once.

Sequence of IL-2Rβ (R&D Systems, Minneapolis, Minn.) (P14784 27-240): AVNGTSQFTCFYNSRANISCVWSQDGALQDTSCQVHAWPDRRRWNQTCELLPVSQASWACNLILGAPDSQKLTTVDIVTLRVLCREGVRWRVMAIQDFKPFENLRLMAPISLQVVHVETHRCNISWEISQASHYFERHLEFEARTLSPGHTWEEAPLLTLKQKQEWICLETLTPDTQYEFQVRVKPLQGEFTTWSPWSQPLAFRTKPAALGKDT

As to XENP21478 (from UniProt P0DOX5 218-449), the Kd (in general, the free concentration of one partner at which half of the binding sites on the other are occupied at equilibrium, for simple one-to-one binding) was 6.76 nM and 3 nM.

With “XENP21479 (from UniProt P0DOX5 218-449; P40933 49-162)”, the Kd was 3.06 nM and 3 nM.
